Assay results reported in paper PMC8352940 (Nature Communications, 2021).
Changes are numbered by the printed parent chain.

B1: nCoVmab1 (antibody, V domains shown)
VH: QVQLVESGGGLVQPGGSLRLSCAASGFTVSSNYMSWVRQAPGKGLEWVSVIYSGGSTYYADSVKGRFTISRDNSKNTLYLQMNSLRAEDTAVYYCARGDGSDDYYYGMDVWGQGTTVTVSS
VL: QSVVTQPPSVSGAQGQRVFISCTGNGANIGMGYDVHWYQQLPGRAPKLLIFGNTNRPSGVPDRFSASRSGTSASLAITGLQTADEADYYCQSYDGNLRASVFGGGTKLTVL
notes: also called nCoVFab1 in IgG1 format; source: 293F cells, purified (Protein A resin)
B2: nCoVmab2 (antibody, V domains shown)
VH: B1 VH with Q1E, E6Q, L11V, G16R
VL: QAVLTQPSSVSGAPGQRVTISCTGSSSNVGAGYDVHWYQQLPGTAPKLLIYGNSNRPSGVPDRFSGSKSGTSASLAITGLQAEDEADYYCQSYDSSLSGSVFGGGTKLTVL
notes: also called nCoVFab2 in IgG1 format; source: 293F cells, purified (Protein A resin)

Biological target: SARS-CoV-2 RBD-Fc fusion protein (SARS-CoV-2, UniProt P0DTC2)
Assay: ELISA
Details: both partners purified

Binder	fold change in EC50 compared to wild type [fold]
B1	1
B2	1
